Literature values, collected in article PMC11133458.

Target: Glu14 (UniProt position 14, GAILAEVIGTT)
Settings: TPP-bound EmrE (Glu14 of monomer A deprotonated)

In the case of “EmrE (multidrug efflux transporter, small multidrug resistance family) (Escherichia coli)”, the pKa is listed as 6.8.
